Data as given in publication PMC1887688.

Molecular target: MHC class II (HLA-DR1) on human LG-2 cells (human (endogenous in LG-2))
Test: radioligand binding

Work on SMEZ-2, recombinant (natural protein) yielded a KD, high affinity site of 25 nM and a KD, low affinity site of 1000 nM.
